# Substitutions are numbered along the chain they refer to.
# B1: CD47单域抗体 SEQ ID NO: 1 (VHH)
# VHH: DVKLVESGGGLVQPGGSLRLSCAASGFTVSSYSMRWYRQVPGKERELIARITSTGQPIEYGESVKGRFTISRDNAKNTLYLEMNALKPEDTAVYYCWGAGYWGQGTQVTVSS
# notes: Expressed from pSJF2 in E. coli, purified on Ni column and detected with anti-His antibody, so it carried a His tag; also called CD47纳米抗体
# B2: CD47单域抗体 SEQ ID NO: 8 (VHH)
# VHH: B1 VHH with K3Q, V5E, V40A, I48V, Q56E, G61V, K76L, Y80N, A85D
# notes: His-tagged sdAb from pSJF2 in E. coli (Ni purification, anti-His detection); also called CD47纳米抗体
# B3: CD47单域抗体 SEQ ID NO: 4 (VHH)
# VHH: B1 VHH with K3Q, L11S, R19T, S31N, V40A, Q56V, G61A, E62D, A85G, G100A
# notes: as for B2
# B4: CD47单域抗体 SEQ ID NO: 10 (VHH)
# VHH: GVKLVESGGGLVQPGGSLTLSCVASGFDFNSAHMRWYRQGPGKEREMVASISTTGGVTIYEDSVKGRFTISRDNADNTAYLRMNSLKPEDTAVYYCRAYGFGIDYWGQGTQVTVSS
# notes: as for B2
# B5: CD47单域抗体 SEQ ID NO: 9 (VHH)
# VHH: AVKLVESGGGLVQPGGSLRLSCAASGFTVSNNNLRWYRQAPGKERELVAMITSAGNTNYADAVKGRSTISRDNAKNTLYLEMYRLKPEDTAVYYCWGAAHWGRGTQVTVSS
# notes: as for B2
# B6: CD47单域抗体 SEQ ID NO: 3 (VHH)
# VHH: HVQLEESGGGLVQPGGSLRLSCKASGLTFASYSMRWYRQAPGQERELVARLSSSGVPIEYVDSVKGRFTASRDDAKSTLYLQMNSLKPEDTAMYYCWIANYWGQGTQVTVSS
# notes: as for B2
# B7: CD47单域抗体 SEQ ID NO: 6 (VHH)
# VHH: B6 VHH with H1Q, Q3K, K23A, A30S, S52T, V56E, V61A, D74N, L79V
# notes: as for B2
# B8: CD47单域抗体 SEQ ID NO: 2 (VHH)
# VHH: QVKLEESGGGLVQPGESLRLSCVASGFAFSSALMRWYRQAPGKERELVASITTAGGITGYADSVKGRFTISRDNAENTLYLQMNSLKPEDTAVYYCRAYGFQLDNWGQGTQVTVSS
# notes: as for B2
# B9: CD47单域抗体 SEQ ID NO: 5 (VHH)
# VHH: B8 VHH with Q1G, K3Q, E5V, I51V, A54T, Q82R, Q102G, N105S
# notes: as for B2
# B10: CD47单域抗体 SEQ ID NO: 7 (VHH)
# VHH: QVKLEESGGGLVQPGESLRLSCVASGFTFSDAHMRWYRQAPGKEREMVASISTTGSITIYADSVKGRFTISRDNDEKTVYLRMNSLKPEDTAAYYCRAYGFQIDSWGQGTQVTVSS
# notes: as for B2
# Target: CD47 on HL-60 cells (细胞膜表面表达的CD47抗原) (UniProt Q08722)
# Assay: flow cytometry, 20 μg/ml nanobody on HL-60 cells, anti-His staining
row,结合率 [%],Binder
1,> 99,B1
2,> 99,B2
3,> 99,B3
4,> 99,B4
5,> 99,B5
6,> 99,B6
7,> 99,B7
8,> 99,B8
9,> 99,B9
10,> 99,B10

# Target: CD47抗原 (北京义翘神州, 货号12283-H08H) (UniProt Q08722)
# Assay: ELISA of induced culture supernatants on CD47 antigen (clone screening)
row,OD值 over negative control (fold),Binder
1,> 5,B1
2,> 5,B2
3,> 5,B3
4,> 5,B4
5,> 5,B5
6,> 5,B6
7,> 5,B7
8,> 5,B8
9,> 5,B9
10,> 5,B10

# Target: Human CD47/Biotinylated (human, UniProt Q08722 19-139, limits assumed, biotinylated (site not stated))
# Sequence (Q08722 19-139 limits assumed): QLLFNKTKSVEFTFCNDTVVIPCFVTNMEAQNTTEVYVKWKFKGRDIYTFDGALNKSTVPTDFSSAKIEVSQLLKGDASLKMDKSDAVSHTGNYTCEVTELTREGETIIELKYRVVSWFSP
# Assay: BLI-type kinetics, biotinylated human CD47 captured on SA probes, antibody at 73.5-588.2 nM
row,Kd [nM],Binder
1,< 1,B1
2,< 1,B2
3,< 1,B3
4,< 1,B4
5,< 1,B5
6,< 1,B6
7,< 1,B7
8,< 1,B8
9,< 1,B9
10,< 1,B10

# Reference: patent CN110981959A (SHENZHEN PREGENE BIOPHARMACEUTICAL CO LTD, dated 2020)
